The target of assay [1] is exemplary anti-ROR1 (ROR 1-1) chimeric antigen receptor. As to the kind of experiment: cell-based or functional assay.
The target is the same in assay [2]. In words: cell-based or functional assay. The source holds these as a separate data set.

Sequence of exemplary anti-ROR1 (ROR 1-1) chimeric antigen receptor (chain, as listed by the source mutant limits assumed): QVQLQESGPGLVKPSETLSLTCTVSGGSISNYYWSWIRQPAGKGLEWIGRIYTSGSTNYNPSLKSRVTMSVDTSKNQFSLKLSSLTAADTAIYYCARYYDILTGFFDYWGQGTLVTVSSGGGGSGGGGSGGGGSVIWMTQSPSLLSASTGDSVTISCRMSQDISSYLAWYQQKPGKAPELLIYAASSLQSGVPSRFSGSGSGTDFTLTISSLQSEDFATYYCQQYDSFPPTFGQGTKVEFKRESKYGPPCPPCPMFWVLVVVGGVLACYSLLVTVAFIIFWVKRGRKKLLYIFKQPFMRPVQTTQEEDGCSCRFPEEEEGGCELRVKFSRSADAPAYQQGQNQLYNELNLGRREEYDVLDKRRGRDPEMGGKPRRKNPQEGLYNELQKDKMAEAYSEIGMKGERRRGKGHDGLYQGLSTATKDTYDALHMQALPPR

B1: anti-idiotype antibody clone F101 (antibody, mouse IgG1, kappa, V domains shown)
VH: QVQFQQSGAELARPGASVKLSCKASGYTFTSYWMQWVKQRPGQGLEWIGTIYPGDGDARYSQKFKGKATLTADKSSSTAYMQLSSLASEDSAVYYCTRRRGYDAMDYWGQGTSVTVSS
VL: NIVLTQSPASLAVSLGQRATISCRASESVDSYGSSFMHWYQEKPGQPPKLLIFLASNLESGVPARFSGSGSRTDFTLTIDPVEADDAATYYCQQNNEDPNMYTFGGGTKLEIRR
Take B1: the “% Nur77-TdT of EGFRt+ cells, plate coated with 5 ug/ml antibody” value (from here on “% Nur77-TdT … with 5 ug/ml antibody”) in assay [1] was 89.8%. In assay [2], the “% Nur77-TdT of EGFRt+ cells, soluble antibody 0.3 ug/mL” value stood at 11.4%; the “% Nur77-TdT of EGFRt+ cells, soluble antibody 0.6 ug/mL” value was 11.8%; the “% Nur77-TdT of EGFRt+ cells, soluble antibody 10 ug/mL” value is 11.7%.

B2: anti-idiotype antibody clone F107 (antibody, mouse IgG1, kappa, V domains shown)
VH: QVTLKESGPGILKPSQTLSLTCSFSGFSLNTFGMGVGWIRQPSGKGLEWLAHIWWDDDKHYHPSLKSQLTISKDTSRNQVFLKITSVDTTDTATYYCVRRYRYDVFDYWGPGTTLTVSS
VL: DVMMTQTPLSLPVSLGDQASISCRSSQSLVHSNGNTYLHWYLQKPGQSPKLLIYKVSNRFSGVPDRFSGSGSGTDFTLKISRVEAEDLGVYFCSQSTHGPWTFGGGTKLEIKR
In the case of B2, the “% Nur77-TdT … with 5 ug/ml antibody” value in assay [1] worked out at 85%. In addition, in assay [2], the “% Nur77-TdT of EGFRt+ cells, soluble antibody 0.3 ug/mL” value worked out at 15.6%; the “% Nur77-TdT of EGFRt+ cells, soluble antibody 0.6 ug/mL” value worked out at 19.9%; the “% Nur77-TdT of EGFRt+ cells, soluble antibody 10 ug/mL” value was determined as 28.3%.

B3: anti-idiotype antibody clone F112 (antibody, mouse IgG1, V domains shown)
VH: QVQLQQPGAELVRPGASVKLSCKASGYPFTSYWINWVKQRPGQGLEWIGMIDPSDSETHYNQMFKDKATLTVDRSSSTAYMHLSSLTSEDSAVYYCARGGIRDYWGQGTTLTVSS
VL: QAVVTQESALTTSPGETVTLTCRSSTGAVTTSNYANWVQEKSDHLFTGLIGGTNNRAPGVPARFSGSLIGDKAALTITGAQTEDEAIYFCALWYSNHWVFGGGTKLTVLG
Turning to B3, the “% Nur77-TdT … with 5 ug/ml antibody” value in assay [1] is 83.9%. In assay [2], the “% Nur77-TdT of EGFRt+ cells, soluble antibody 0.3 ug/mL” value was 38.3%; the “% Nur77-TdT of EGFRt+ cells, soluble antibody 0.6 ug/mL” value was found to be 41.3%; the “% Nur77-TdT of EGFRt+ cells, soluble antibody 10 ug/mL” value worked out at 43.2%.

Values taken from patent publication US20230324408A1 (JUNO THERAPEUTICS, published 2023).
